Earlier results as cited in publication PMC3777542.

Columns and labels:
Hck SH3 (Homo sapiens) = Hck SH3 (Homo sapiens) (UniProt P08631)
Hck (Homo sapiens) = Hck (Homo sapiens) (UniProt P08631)
[1] = target: CD4 cytoplasmic tail (Homo sapiens) (UniProt P01730)
[2] = target: AP-2 hemicomplex (Homo sapiens) (UniProt O95782); test: SPR
Chain of UniProt O95782 (O95782 whole entry, chain 1 of 2): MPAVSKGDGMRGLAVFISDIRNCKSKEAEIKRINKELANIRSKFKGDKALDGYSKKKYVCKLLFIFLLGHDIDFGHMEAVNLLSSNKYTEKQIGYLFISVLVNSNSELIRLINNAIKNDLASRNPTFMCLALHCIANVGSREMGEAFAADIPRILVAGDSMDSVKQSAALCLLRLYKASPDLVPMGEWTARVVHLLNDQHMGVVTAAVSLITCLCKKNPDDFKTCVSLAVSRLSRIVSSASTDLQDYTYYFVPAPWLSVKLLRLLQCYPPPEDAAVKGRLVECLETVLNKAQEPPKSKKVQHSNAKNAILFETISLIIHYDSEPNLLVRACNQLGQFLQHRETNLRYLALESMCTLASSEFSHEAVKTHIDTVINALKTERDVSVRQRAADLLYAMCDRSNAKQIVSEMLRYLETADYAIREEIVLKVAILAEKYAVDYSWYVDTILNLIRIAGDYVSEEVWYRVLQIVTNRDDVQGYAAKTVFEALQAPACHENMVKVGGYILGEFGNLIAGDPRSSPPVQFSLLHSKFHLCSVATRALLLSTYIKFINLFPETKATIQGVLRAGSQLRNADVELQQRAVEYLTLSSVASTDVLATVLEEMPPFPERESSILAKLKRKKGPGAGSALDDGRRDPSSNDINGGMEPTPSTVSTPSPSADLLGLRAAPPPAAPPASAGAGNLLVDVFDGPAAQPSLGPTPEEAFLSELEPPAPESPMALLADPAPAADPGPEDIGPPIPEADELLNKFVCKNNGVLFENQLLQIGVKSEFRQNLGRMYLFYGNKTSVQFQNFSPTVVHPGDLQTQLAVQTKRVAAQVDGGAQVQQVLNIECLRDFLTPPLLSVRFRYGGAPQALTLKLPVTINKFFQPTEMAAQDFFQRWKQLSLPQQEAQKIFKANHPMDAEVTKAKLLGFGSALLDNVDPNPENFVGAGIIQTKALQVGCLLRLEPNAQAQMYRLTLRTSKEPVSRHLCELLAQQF
Chain of UniProt O95782 (B2R4Z4 whole entry, chain 2 of 2, further chain): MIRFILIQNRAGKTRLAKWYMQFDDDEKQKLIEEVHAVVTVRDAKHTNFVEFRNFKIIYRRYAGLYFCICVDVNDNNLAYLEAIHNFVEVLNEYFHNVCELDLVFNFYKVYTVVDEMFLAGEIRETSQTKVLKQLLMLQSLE

Nef (from UniProt P04324)
Kd (Hck SH3 (Homo sapiens)): 0.26 µM | Kd (Hck (Homo sapiens)): 0.2 µM | Kd [1]: 1 µM | Kd [2]: 6 µM
